Laboratory results: patent US20170241986A1, “METHODS FOR IDENTIFYING COMPOUNDS THAT ALTER THE ACTIVITY OF IRHOM POLYPEPTIDES AND USE THEREOF” (The Jackson Laboratory, priority 2014, published 2017)

T1: HA-tagged human AREG (amphiregulin) (human) (UniProt P15514)
T1 sequence (looked up): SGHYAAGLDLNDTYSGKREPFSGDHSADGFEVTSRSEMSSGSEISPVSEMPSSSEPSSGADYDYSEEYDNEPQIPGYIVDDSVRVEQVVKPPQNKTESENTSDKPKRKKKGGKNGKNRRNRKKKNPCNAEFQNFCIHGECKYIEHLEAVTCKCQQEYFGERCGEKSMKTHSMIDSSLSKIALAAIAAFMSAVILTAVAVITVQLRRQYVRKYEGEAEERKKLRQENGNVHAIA

B1: Flag-tagged HuCub (human version of cub cDNA; N-terminal-truncated human iRhom2) (enzyme, not shown: small tags and cut ends)
chain: MSSMPDDVFESPPLSASYFRGIPHSASPVSPDGVQIPLKEYGRAPVPGPRRGKRIASKVKHFAFDRKKRHYGLGVVGNWLNRSYRRSISSTVQRQLESFDSHRPYFTYWLTFVHVIITLLVICTYGIAPVGFAQHVTTQLVLRNKGVYESVKYIQQENFWVGPSSIDLIHLGAKFSPCIRKDGQIEQLVLRERDLERDSGCCVQNDHSGCIQTQRKDCSETLATFVKWQDDTGPPMDKSDLGQKRTSGAVCHQDPRTCEEPASSGAHIWPDDITKWPICTEQARSNHTGFLHMDCEIKGRPCCIGTKGSCEITTREYCEFMHGYFHEEATLCSQVHCLDKVCGLLPFLNPEVPDQFYRLWLSLFLHAGVVHCLVSVVFQMTILRDLEKLAGWHRIAIIFILSGITGNLASAIFLPYRAEVGPAGSQFGLLACLFVELFQSWPLLERPWKAFLNLSAIVLFLFICGLLPWIDNIAHIFGFLSGLLLAFAFLPYITFGTSDKYRKRALILVSLLAFAGLFAALVLWLYIYPINWPWIEHLTCFPFTSRFCEKYELDQVLH
B2: HuCub: human RHBDF2 construct mimicking the mutant Rhbdf2cub transcript; N-terminal-truncated iRhom2 (protein)
chain: B1 chain
modifications: left off: small tags and cut ends
notes: human RHBDF2 construct mimicking the mutant Rhbdf2cub transcript; N-terminal-truncated iRhom2
B3: p.I186T: HuWt clone containing the human tylosis missense mutation RHBDF2 p.I186T (protein)
chain: MASADKNGGSVSSVSSSRLQSRKPPNLSITIPPPEKETQAPGEQDSMLPEGFQNRRLKKSQPRTWAAHTTACPPSFLPKRKNPAYLKSVSLQEPRSRWQESSEKRPGFRRQASLSQSIRKGAAQWFGVSGDWEGQRQQWQRRSLHHCSMRYGRLKASCQRDLELPSQEAPSFQGTESPKPCKMPKTVDPLARGRAFRHPEEMDRPHAPHPPLTPGVLSLTSFTSVRSGYSHLPRRKRMSVAHMSLQAAAALLKGRSVLDATGQRCRVVKRSFAFPSFLEEDVVDGADTFDSSFFSKEEMSSMPDDVFESPPLSASYFRGIPHSASPVSPDGVQIPLKEYGRAPVPGPRRGKRIASKVKHFAFDRKKRHYGLGVVGNWLNRSYRRSISSTVQRQLESFDSHRPYFTYWLTFVHVIITLLVICTYGIAPVGFAQHVTTQLVLRNKGVYESVKYIQQENFWVGPSSIDLIHLGAKFSPCIRKDGQIEQLVLRERDLERDSGCCVQNDHSGCIQTQRKDCSETLATFVKWQDDTGPPMDKSDLGQKRTSGAVCHQDPRTCEEPASSGAHIWPDDITKWPICTEQARSNHTGFLHMDCEIKGRPCCIGTKGSCEITTREYCEFMHGYFHEEATLCSQVHCLDKVCGLLPFLNPEVPDQFYRLWLSLFLHAGVVHCLVSVVFQMTILRDLEKLAGWHRIAIIFILSGITGNLASAIFLPYRAEVGPAGSQFGLLACLFVELFQSWPLLERPWKAFLNLSAIVLFLFICGLLPWIDNIAHIFGFLSGLLLAFAFLPYITFGTSDKYRKRALILVSLLAFAGLFAALVLWLYIYPINWPWIEHLTCFPFTSRFCEKYELDQVLH
modifications: left off: small tags and cut ends

Experiments:
[1] = biological target: T1, HA-tagged human AREG (amphiregulin) (human); experiment: cell-based or functional assay
[2] = tested on: AREG; experiment: ELISA of AREG in conditioned medium of transfected 293T cells (in vitro cleavage assay); type: cell-based, human
Source text: To test whether Rhbdf2^cub, with its short N-terminal domain, could induce secretion of AREG independently of metalloprotease activity, we performed in vitro cleavage assays in the presence or absence of marimastat (MM), a potent broad-spectrum metalloprotease inhibitor that can block both ADAM17- and ADAM10-dependent shedding of substrates. Because of the significant homology between the mouse and human RHBDF2 genes we transfected 293T cells with human AREG either alone or with the human wildtype (HuWt) or human Cub (HuCub) RHBDF2 genes (FIG. 5A), and measured AREG levels in conditioned medium. In the absence of MM, we observed no difference in AREG levels between AREG-expressing and AREG/HuCub co-expressing cells, whereas co-expression of HuWt and AREG reduced AREG levels by ˜60% (FIG. 5B).
(§1) Human AREG, HB-EGF and EGF ELISA: Transient transfections were performed in 293T cells seeded in 24-well plates. Using lipofectamine LTX with Plus reagent 16.5 fmol of HuWt or HuCub was co-transfected with 25 ng of AREG or 50 ng of HB-EGF or 200 ng of EGF. The total amount of transfected DNA was made up to equal amount per well with pCMV6-AC-HA vector. After 24 h, DMSO or 10 μM MM in 1 ml of fresh medium replaced the old medium. After 24 h, 100 μl of supernatant was either undiluted (HB-EGF and EGF) or diluted five-fold (AREG) and subjected to ELISA as per the manufacturer's instructions (DY262, DY259, and DY236).

[3] = tested on: HB-EGF; experiment: ELISA of HB-EGF in conditioned medium of transfected 293T cells; type: cell-based, human; details: 10 μM marimastat
Experimental: as §1

[4] = tested on: EGF; experiment: ELISA of EGF in conditioned medium of transfected 293T cells; type: cell-based, human; details: 10 μM marimastat
Experimental: as §1

[5] = tested on: AREG; experiment: Co-immunoprecipitation of iRhom2-AREG complex; type: binding, human; details: COS7 cell lysates, anti-Flag immunoprecipitation
Experimental: Immunoprecipitation: 293T and COS7 cell transfections were carried according to the manufacturer's instructions (Life technologies). Cells plated in 6 well plates were treated with 400 μls of Cell Lysis Buffer (Cell Signaling, Danvers, Mass.) containing complete mini protease inhibitors (Roche Applied Science, Indianapolis, Ind.), incubated on ice for 10 min and centrifuged at 14,000 g for 10 min in a cold room. Cell supernatant was incubated overnight with 20 μls of magnetic beads conjugated with Anti-DDK antibody (Origene) in a cold room on a rocking platform. Following overnight incubation, beads/slurry was washed with three times with TBS-T, and protein was collected using 2×SDS-PAGE loading buffer.

[6] = tested on: AREG; experiment: Immunoblot of intracellular pro-AREG in co-transfected cells; type: cell-based, human; details: co-expression with AREG, DMSO or 10 μM MM
Experimental: SDS-PAGE and Immunoblotting: Cells were washed once with ice cold PBS and incubated with RIPA buffer (Cell Signaling, Danvers, Mass.) containing complete mini protease inhibitors (Roche Applied Science, Indianapolis, Ind.) on ice for 10 min. Cell lysate was centrifuged at 14,000 g for 10 min at 4° C. Supernatant was collected and stored at −80° C. until further use. Total amount of protein was quantified using a Qubit Fluorometer (Life technologies), and 10 μg of protein was loaded onto 4-12% pre-cast gels (Lonza, Allendale, N.J.) and run at 140V until the low molecular weight Precision plus protein standard (Bio-Rad) reached the bottom of the gel. Resolved proteins were electrophoretically transferred onto PVDF membranes using an iBLOT (Life technologies) before blocking in 5% BSA (Cell Signaling Technology) in TBST (20 mM Tris, 137 mM sodium chloride, and 0.1% Tween-20) for 1 h at room temperature. Membranes were then incubated overnight at 4° C. in primary antibodies (1:1000) followed by three 15 min washes in TBST and incubation in secondary antibodies (1:2000) for 1 h at room temperature. After another wash in TBST for 90 min, membranes were exposed to SuperSignal West Femto Substrate (Fisher Scientific) for 5 min for detection of horseradish peroxidase generated signal. Membranes were re-probed with actin-specific antibody. […]

[7] = co-expression with AREG, 10 μM marimastat

Molecule | AREG levels after co-transfection [1] [fold] | AREG levels in conditioned medium (ELISA) of co-transfected 293T cells in the presence of marimastat [1] [fold] | secretion of AREG compared with empty vector transfected controls ([2]; 293T cells, 10 μM marimastat) | AREG levels versus AREG-expressing cells ([2]; 293T cells, co-expression with AREG, absence of MM) | levels of AREG in conditioned medium compared with HuWt [2, 7] | secretion of HB-EGF compared with empty vector transfected controls [3] | secretion of EGF compared with empty vector transfected controls [4] | physical complex with AREG [5] | intracellular levels of AREG compared with HuWt [6]
B1 | 2 to 3 | 2 | – | – | – | – | – | – | –
B2 | – | – | selectively increased secretion of AREG | no difference | greater levels of AREG in conditioned medium | selectively increased secretion of AREG and HB-EGF | not EGF | forms physical complexes with AREG | lower intracellular levels
B3 | – | – | – | – | greater levels of AREG in conditioned medium | – | – | forms physical complexes with AREG | lower intracellular levels
